Results published in US20260275304A1, “METHODS AND COMPOSITIONS FOR GLYPHOSATE TOLERANCE IN PLANTS” (Monsanto Technology LLC, priority 2023, published 2026).
Like-named read-outs stand apart in the source and are kept apart here.

Legend:
transgenic maize plants = experiment: Glyphosate spray test on R0 transgenic maize plants; assay type: in vivo, Zea mays; details: for Percent of sprayed plants showing glyphosate injury: 0.75 lb ae/acre POST at V3-V4, seven days after application; for plants injured by the glyphosate spray: injury observed 1 week following treatment
Protocol: Two of the six EPSPS variants had developing plants greater than twenty-five. The extra developing R0 plants from these two variants were utilized in a glyphosate spray test to determine the tolerance provided by the EPSPS variants to a typical post glyphosate application to young plants. The R0 plants were sprayed with glyphosate applied postemergence (POST) at 0.75 lb ae (acid equivalent)/acre (0.84 kg ae/ha) at the V3-V4 stage. Treated plants were evaluated for injury seven days after glyphosate application.

maize EPSPS = experiment: In vitro characterization of EPSPS mutants (EnzChek phosphate assay, Michaelis-Menten kinetics, glyphosate Ki); assay type: biochemical, Zea mays; details: for Km: apparent Km, mean±S.E.; for Ki: inhibitory constant for glyphosate, no unit in table (around 800 μM)
Protocol: Activity was determined by quantifying release of Pi, coupled to a reaction with MESG, catalyzed by purine-nucleoside phosphorylase using the EnzChek Phosphate Assay Kit from Invitrogen, first published in 1992. 95 μL of master mix was added to each well and 5 μL of the varied substrate dilutions were multi-channeled into the plate to start the reaction simultaneously for all conditions. Absorbance measurements at 360 nm were taken every 10 seconds for 3 minutes to capture the initial reaction rate of each condition. Varying levels of substrate were added to generate the resulting reaction rate curves. Each condition was performed in triplicate. Ki was determined as previously described (Lu, et al., Protein Engineering, Design and Selection 30:395-399 (2017)). Data was fit to the Michaelis-Menten kinetics equation and were also validated through GraphPad Prism's built-in function for each variant.
For protein expression of EPSPS and its variants, E. coli BL21 (DE3) was used as the expression host. Electrocompetent cells were transformed with the corresponding constructed plasmids, pET28a (+) with selected EPSPS variants (wild-type, TIPS, TIPS P126S, TIPS K296R, TIPS P126S/K296R). A single colony of an E. coli BL21 (DE3) strain harboring one of the constructed plasmids was inoculated into 2 mL of Luria Bertani broth (LB) medium with 50 μg/mL kanamycin and grown overnight at 37° C./225 rpm. The overnight-grown culture (using 100 μl) was scaled up with 2000-fold dilution in a 500-mL triple baffled shake flask and grown to a cell density of 0.8 (optical density [OD600]) at 37° C./225 rpm. Protein expression was induced by adding 0.2 mM of isopropyl β-D-1-thiogalactopyranoside (IPTG) and cells were cultured for 24 hours at 20° C./225 rpm. The induced cell culture was harvested by centrifugation at 4,000 g and 4° C. for 20 mins. Cell pellets were then resuspended in 25 mL of Dulbecco's Phosphate Buffered Saline (DPBS) (Thermo Fisher Scientific, Waltham, MA) pH 7.0 buffer containing 10 mM imidazole, 1 g/L of lysozyme and 5 μl of Pierce™ Universal Nuclease (Thermo Fisher Scientific, Waltham, MA), followed by mixing on a rocker for 30 mins at 4° C. Subsequently, cells were lysed by sonication and the resulting cell lysate was centrifuged at 14,000 g and 4° C. for 20 minutes to obtain the supernatant that contains soluble proteins. Target proteins from the supernatant was purified by HisPur™ Ni-NTA Resin (Thermo Fisher Scientific, Waltham, MA) according to the manufacturer's instruction.
The eluate was dialyzed with 3C protease added to the dialysis cassette, into the appropriate buffer followed by size-exclusion fast protein liquid chromatography. All EPSP synthase variants were stored in 20 mM Tris (pH 7.5), 100 mM NaCl and 10 mM β-mercaptoethanol. The protein concentration was then determined by using the Coomassie Plus Bradford Assay kit (Thermo Fisher Scientific) and the Infinite M200 PRO microplate reader (Tecan, Männedorf, Switzerland) to measure the absorbance of assay mixtures. The presence and purity of the purified proteins were assessed by sodium dodecyl sulfate-polyacrylamide gel electrophoresis.
Enzymatic activity, including inhibitory constant Ki, for EPSPS and TIPS closely corroborate values determined by previous reports. Mutations P126S and K296R have beneficial effects on their own to both Km and kcat and are additive when combined, similar to the observations of the in vivo growth characterization. Furthermore, the high Ki is maintained for each of the variants, showing similar or slightly higher values of around 800 μM compared to the starting point, TIPS. These findings confirm the phenotype endowed by the dual-trait selection pressure employed during the directed evolution campaigns. Kinetic parameters of maize EPSPS with mutations discovered through directed evolution. In Table 4, initial velocity data were measured in triplicate and fit to the Michaelis-Menten equation. […]

[1] = PEP at saturation (roughly 10 times its Km), read-out: Km (S3P)
[2] = S3P at saturation (roughly 10 times its Km), read-out: Km (PEP)

Row | Molecule | Percent of sprayed plants showing glyphosate injury (transgenic maize plants) [%] | plants injured by the glyphosate spray (transgenic maize plants) | Km (maize EPSPS; [1]) [µM] | Km (maize EPSPS; [2]) [µM] | Ki (maize EPSPS) [µM] | enzymatic efficiency relative to TIPS (maize EPSPS; higher than evolutionary starting point TIPS)
1 | TIPS: Zea mays EPSPS double mutant T102I and P106S, SEQ ID NO:9; positive control (protein, Zea mays, positive control) AGAEEIVLQPIKEISGTVKLPGSKSLSNRILLLAALSEGTTVVDNLLNSEDVHYMLGALRTLGLSVEADKAAKRAVVVGCGGKFPVEDSKEEVQLFLGNAGIAMRSLTAAVTAAGGNATYVLDGVPRMRERPIGDLVVGLKQLGADVDCFLGTDCPPVRVNGIGGLPGGKVKLSGSISSQYLSALLMAAPLALGDVEIEIIDKLISIPYVEMTLRLMERFGVKAEHSDSWDRFYIKGGQKYKSPKNAYVEGDASSASYFLAGAAITGGTVTVEGCGTTSLQGDVKFAEVLEMMGAKVTWTETSVTVTGPPREPFGRKHLKAIDVNMNKMPDVAMTLAVVALFADGPTAIRDVASWRVKETERMVAIRTELTKLGASVEEGPDYCIITPPEKLNVTAIDTYDDHRMAMAFSLAACAEVPVAIRDPGCTRKTFPDYFDVLSTFVKN | 30 | Three of the ten | 33.2 | 26.2 | 739 | 
2 | TIPS-P126S-K296R: maize EPSPS variant, probably SEQ ID NO:11 (protein, Zea mays) AGAEEIVLQPIKEISGTVKLPGSKSLSNRILLLAALSEGTTVVDNLLNSEDVHYMLGALRTLGLSVEADKAAKRAVVVGCGGKFPVEDSKEEVQLFLGNAGIAMRSLTAAVTAAGGNATYVLDGVSRMRERPIGDLVVGLKQLGADVDCFLGTDCPPVRVNGIGGLPGGKVKLSGSISSQYLSALLMAAPLALGDVEIEIIDKLISIPYVEMTLRLMERFGVKAEHSDSWDRFYIKGGQKYKSPKNAYVEGDASSASYFLAGAAITGGTVTVEGCGTTSLQGDVKFAEVLEMMGARVTWTETSVTVTGPPREPFGRKHLKAIDVNMNKMPDVAMTLAVVALFADGPTAIRDVASWRVKETERMVAIRTELTKLGASVEEGPDYCIITPPEKLNVTAIDTYDDHRMAMAFSLAACAEVPVAIRDPGCTRKTFPDYFDVLSTFVKN | 0 | none | 16.8 | 15.5 | 871 | roughly 2.5 fold
